A short description of the data set: protein stability index of a GFP-peptide fusion (GPS, HEK-293T) (PSI 1-6); higher = more stable.
Setting [1] is: treatment: DMSO, c terminus: a fixed tail appended.
The mark [2] stands for this setting: treatment: MLN4924 1 uM, 8 h, c terminus: a fixed tail appended.

± gives the standard deviation.
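Further: 24-mer peptide tiles fused after GFP, lentivirally expressed, FACS-sorted into six equal bins by GFP/DsRed ratio, decoded by Illumina sequencing, PSI is the read-weighted mean bin number.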

Regarding PGHGGIMDRFDCQYLMATFVHVYI [CDS1], the protein stability index by setting is: under setting [1], 3.26 ± 0.46; under setting [2], 3.1 ± 0.3.

As to WLEDEPGRGAQGENERVRGLETGD [ZSWIM9], the protein stability index is 5.49 ± 0.32 under setting [1] and 5.48 ± 0.18 under setting [2].

With LPHPGLQVATSPDFDGKLKDIAGE [ATL3], the protein stability index by setting is: under setting [1], 4.91 ± 0.25; under setting [2], 5.11 ± 0.26.

As to AMFRLEHGEADRSTLKKALPTLSH [YJU2B], the protein stability index under setting [1] came out at 3.33 ± 0.16 and the protein stability index under setting [2] was 3.38 ± 0.17.

Take PVDSVLFYAITTLHNLLLHQEGAK [CTNNB1]: the protein stability index runs as follows: under setting [1], 2.81 ± 0.48; under setting [2], 2.71 ± 0.17.

Consider EMQIENLKEELAYLKKNHEEEMNA [KRT17], for which the protein stability index is 4.67 ± 0.24 under setting [1] and 4.88 ± 0.33 under setting [2].

In the case of SSAVSGVKEWFGLGGEQAEEKAFE [MIA2], the protein stability index is 5.09 ± 0.43 under setting [1] and 5.04 ± 0.19 under setting [2].

In the case of HPFFDTAEPDMDDPAYIAVLVLIF [INTS4], the protein stability index amounted to 2.61 ± 0.57 under setting [1] and 2.66 ± 0.62 under setting [2].

Turning to LKDWEHSIALRNISLAKGPPGPKG [SCARA5], the protein stability index runs as follows: under setting [1], 3.68 ± 0.25; under setting [2], 3.78 ± 0.36.

In the case of FLYVTGHIKEILITAGGENVPPIP [ACSBG2], the protein stability index by setting is: under setting [1], 2.78 ± 0.93; under setting [2], 2.81 ± 1.1.

For the sequence PGPVCQPPVSQSRSLFSSVPSKPP [ANKRD40], the protein stability index reads like this: under setting [1], 4.34 ± 0.39; under setting [2], 4.54 ± 0.48.

Turning to GRAGAVGTPGERGPPGPPGPPGPP [EMID1], the protein stability index runs as follows: under setting [1], 4.6 ± 0.44; under setting [2], 4.68 ± 0.22.

Take LLDSMCPASTPSVLSSEQEFQMFP [ETS2]: the protein stability index is 3.94 ± 0.16 under setting [1] and 4.07 ± 0.28 under setting [2].

In the case of FRLPGLSRREREPEPPAAVDFLEP [FCHO1], the protein stability index came out at 4.24 ± 0.3 under setting [1] and 4.31 ± 0.33 under setting [2].

As for EAAGSFTSSLAQPGAYYPYERTLG [IRX6], the protein stability index by setting is: under setting [1], 3.24 ± 0.14; under setting [2], 3.28 ± 0.42.

Sequence HQADLEVANRHGHTCLMISCYKGH [FEM1A] yielded a protein stability index under setting [1] of 2.73 ± 0.33 and a protein stability index under setting [2] of 2.69 ± 0.45.

LIILASGGPQALVNIMRTYTYEKL [CTNNB1]: the protein stability index by setting is: under setting [1], 3.04 ± 0.21; under setting [2], 3.35 ± 0.76.

With TEALGCDPPLSQDERTHRSDRPFK [ZNF8], the protein stability index under setting [1] turned out to be 5.39 ± 0.28 and the protein stability index under setting [2] is 5.26 ± 0.16.

Consider YYLALLLSLLVMVISPVIQLQPTF [NSDHL], for which the protein stability index reads like this: under setting [1], 2.68 ± 0.37; under setting [2], 2.91 ± 0.64.

Take DLEVDMNKTEVTPRLWTTCRDGEV [ACSBG2]: the protein stability index stood at 3.96 ± 0.15 under setting [1] and 3.95 ± 0.064 under setting [2].

Consider YAIKRSKKPLAGSVDEQNALREVY [WEE1], for which the protein stability index was 3.3 ± 0.32 under setting [1] and 3.16 ± 0.25 under setting [2].

As to DLSGIQTSDAAFLTQWKDSLVSLV [ZER1], the protein stability index was 2.37 ± 0.33 under setting [1] and 2.49 ± 0.26 under setting [2].

For VSGGSAGGYGGGVSCGFGGGAGSG [KRT13], the protein stability index runs as follows: under setting [1], 3.47 ± 0.38; under setting [2], 3.55 ± 0.19.

SLKEEHRAYDLLRAASENSQDALR [IKZF1] showed a protein stability index under setting [1] of 4.32 ± 0.52 and a protein stability index under setting [2] of 4.36 ± 0.34.

As for HNGDMEKILLDAQHESGQSSSRGS [BNIP3L], the protein stability index runs as follows: under setting [1], 5.18 ± 0.17; under setting [2], 5.32 ± 0.3.

For the sequence GEREAIQKSVTRSCLLEEEEESGE [POP5], the protein stability index is, setting by setting: under setting [1], 5.53 ± 0.33; under setting [2], 5.65 ± 0.18.

GGFGSMLRALGAQIEKTTNREACR [SDE2] gave a protein stability index under setting [1] of 3.27 ± 0.41 and a protein stability index under setting [2] of 3.34 ± 0.13.

As for RTISCHVQNGTYLQRVLQNCPWPM [EMID1], the protein stability index by setting is: under setting [1], 2.12 ± 0.22; under setting [2], 2.02 ± 0.17.

As for GIHPLSSSEVDELIHKADEVTLSE [PALM], the protein stability index under setting [1] was determined as 5.35 ± 0.2 and the protein stability index under setting [2] amounted to 5.23 ± 0.12.

Turning to HPFYHCLVAEVPKEHWTPEGHSIV [SAT1], the protein stability index worked out at 2.76 ± 0.33 under setting [1] and 2.54 ± 0.25 under setting [2].

Turning to SFSTGAGGWSNHHFCVILLGFLP [BET1L], the protein stability index stood at 2.99 ± 0.39 (treatment: DMSO, c terminus: native) and 2.99 ± 0.53 (treatment: MLN4924 1 uM, 8 h, c terminus: native).

Take CEGKPYNQKSDIWALGCVLYELAS [NEK8]: the protein stability index under setting [1] worked out at 3.08 ± 0.74 and the protein stability index under setting [2] stood at 2.88 ± 0.72.

SKRKAETWKKNRRQLAYSTVGTPD [STK38L]: the protein stability index by setting is: under setting [1], 4.02 ± 0.41; under setting [2], 4.33 ± 0.5.

For the sequence HQVTVNESLLAPLNVELDPEIQKV [KRT71], the protein stability index was determined as 4.73 ± 0.2 under setting [1] and 4.45 ± 0.15 under setting [2].

With RRWGKRKNKPKMNYEKLSRGLRYY [ETS1], the protein stability index runs as follows: under setting [1], 2.44 ± 0.33; under setting [2], 2.68 ± 0.38.

Consider RVLKAYTLYRPEEGYCQAQAPIAA [TBC1D10A], for which the protein stability index is, setting by setting: under setting [1], 2.08 ± 0.29; under setting [2], 2.16 ± 0.21.

On to KALFTCPFNGDCRITKDNRRHCQA [VDR], for which the protein stability index under setting [1] was found to be 2.84 ± 0.31 and the protein stability index under setting [2] came to 3.21 ± 0.42.

For the sequence PISAIRHEGKTDSERTDTAADGET [EPB41L3], the protein stability index came to 5.71 ± 0.19 under setting [1] and 5.74 ± 0.078 under setting [2].

ANQLIDIISSDELNVRSEEQVFNA [KLHL20]: the protein stability index reads like this: under setting [1], 4.42 ± 0.21; under setting [2], 4.34 ± 0.25.

For SNFNYFYHRETEGEEQAQLLHVSS [KCNA1], the protein stability index by setting is: under setting [1], 3.95 ± 0.12; under setting [2], 4.03 ± 0.34.

As to AQPNYIPTQQDVLRTRVKTTGIVE [GNAI1], the protein stability index reads like this: under setting [1], 4.19 ± 0.23; under setting [2], 4.27 ± 0.36.

For LKNGSMGSPVNQQPKKNNVMARTR [FAM219A], the protein stability index runs as follows: under setting [1], 3.96 ± 0.32; under setting [2], 4.13 ± 0.27.

Take RKLSPTEPKNYGSYSTQASAAAAT [SCAMP3]: the protein stability index runs as follows: under setting [1], 4.37 ± 0.17; under setting [2], 4.38 ± 0.14.

As to EDVTVGRRQAVAWLVAMHKAAKLL [ZFYVE21], the protein stability index runs as follows: under setting [1], 2.48 ± 0.34; under setting [2], 2.59 ± 0.35.

For the sequence DKPSEPASEEGSESEGSESSGRSC [SMG5], the protein stability index runs as follows: under setting [1], 5.56 ± 0.25; under setting [2], 5.6 ± 0.14.

On to GKGSGGNAGSYIPSYTSWYPSAHQ [DLX1], for which the protein stability index under setting [1] is 2.56 ± 0.43 and the protein stability index under setting [2] worked out at 2.69 ± 0.48.

In the case of AREVKLLLLGAGESGKSTIVKQMK [GNAI1], the protein stability index is 2.73 ± 0.25 under setting [1] and 2.62 ± 0.26 under setting [2].

In turn, MEVAMVSAESSGCNSHMPYGYAAQ [KCNA4] yielded a protein stability index under setting [1] of 2.95 ± 0.15 and a protein stability index under setting [2] of 3.32 ± 0.5.

With FDVHPNELTNGVINAAFMLLFKDL [SNAP91], the protein stability index runs as follows: under setting [1], 2.84 ± 0.81; under setting [2], 2.24 ± 0.41.

For the sequence SSTLNPSTSSSTQGDPAFPEMNGN [NOL4L], the protein stability index is 5.44 ± 0.25 under setting [1] and 5.44 ± 0.2 under setting [2].

On to RSVIEVPAVPEEILKRLLKEQHLW [DLC1], for which the protein stability index was found to be 2.48 ± 0.36 under setting [1] and 2.69 ± 0.37 under setting [2].

With DEMLSYLPGGTTGLQLPSTLPVSG [TFE3], the protein stability index is, setting by setting: under setting [1], 3.95 ± 0.26; under setting [2], 4.15 ± 0.21.

As for CWSFYGQGRKIAEVCCTSIVYATE [KCTD13], the protein stability index by setting is: under setting [1], 2.88 ± 0.6; under setting [2], 2.97 ± 0.79.
